Here are results for 39 variants from the Human Domainome abundance scans (Beltran et al. 2025).

± gives the uncertainty stated by the source.

B1: TOX high mobility group box family member 3, residues 256 to 323; numbered along this chain, O15405 (parent)
chain: QKPVSAYALFFRDTQAAIKGQNPNATFGEVSKIVASMWDSLGEEQKQVYKRKTEAAKKEYLKALAAYR

The variants in the data set derive from B1. Briefly: abundance fitness (aPCA) (normalised: wild type 0, dead -1); higher = more abundant; growth selection in yeast, the domain comes from the species named. The note with it: Homo sapiens.
For the variant QKPVSAYALFFRDTQAAIKGQNPNATFGEVSKDVASMWDSLGEEQKQVYKRKTEAAKKEYLKALAAYR [I33D], the abundance fitness was -0.771 ± 0.18.

Regarding QKPVSAYALFFRDTQAAIKGQNPNATFGEVSKCVASMWDSLGEEQKQVYKRKTEAAKKEYLKALAAYR [I33C], the abundance fitness is -0.324 ± 0.089.

Regarding QKPVSAYALFFRDTQAAIKGQNPNATFGEVSKMVASMWDSLGEEQKQVYKRKTEAAKKEYLKALAAYR [I33M], the abundance fitness is 0.101 ± 0.071.

On to QKPVSAYALFFRDTQAAIKGQNPNATFGEVSKRVASMWDSLGEEQKQVYKRKTEAAKKEYLKALAAYR [I33R], for which the abundance fitness is -0.134 ± 0.054.

On to QKPVSAYALFFRDTQAAIKGQNPNATFGEVSKQVASMWDSLGEEQKQVYKRKTEAAKKEYLKALAAYR [I33Q], for which the abundance fitness was -0.122 ± 0.092.

As to QKPVSAYALFFRDTQAAIKGQNPNATFGEVSKNVASMWDSLGEEQKQVYKRKTEAAKKEYLKALAAYR [I33N], the abundance fitness was -0.329 ± 0.094.

With QKPVSAYALFFRDTQAAIKGQNPNATFGEVSKSVASMWDSLGEEQKQVYKRKTEAAKKEYLKALAAYR [I33S], the abundance fitness is -0.267 ± 0.05.

Regarding QKPVSAYALFFRDTQAAIKGQNPNATFGEVSKHVASMWDSLGEEQKQVYKRKTEAAKKEYLKALAAYR [I33H], the abundance fitness was -0.324 ± 0.1.

For the variant QKPVSAYALFFRDTQAAIKGQNPNATFGEVSKKVASMWDSLGEEQKQVYKRKTEAAKKEYLKALAAYR [I33K], the abundance fitness is -0.01 ± 0.081.

Take QKPVSAYALFFRDTQAAIKGQNPNATFGEVSKGVASMWDSLGEEQKQVYKRKTEAAKKEYLKALAAYR [I33G]: the abundance fitness is -0.402 ± 0.067.

QKPVSAYALFFRDTQAAIKGQNPNATFGEVSKLVASMWDSLGEEQKQVYKRKTEAAKKEYLKALAAYR [I33L]: the abundance fitness is -0.016 ± 0.047.

In the case of QKPVSAYALFFRDTQAAIKGQNPNATFGEVSKWVASMWDSLGEEQKQVYKRKTEAAKKEYLKALAAYR [I33W], the abundance fitness was -0.507 ± 0.1.

Regarding QKPVSAYALFFRDTQAAIKGQNPNATFGEVSKEVASMWDSLGEEQKQVYKRKTEAAKKEYLKALAAYR [I33E], the abundance fitness is -0.131 ± 0.067.

QKPVSAYALFFRDTQAAIKGQNPNATFGEVSKPVASMWDSLGEEQKQVYKRKTEAAKKEYLKALAAYR [I33P]: the abundance fitness was -1.01 ± 0.12.

As to QKPVSAYALFFRDTQAAIKGQNPNATFGEVSKTVASMWDSLGEEQKQVYKRKTEAAKKEYLKALAAYR [I33T], the abundance fitness turned out to be 0.021 ± 0.061.

As for QKPVSAYALFFRDTQAAIKGQNPNATFGEVSKYVASMWDSLGEEQKQVYKRKTEAAKKEYLKALAAYR [I33Y], the abundance fitness was -0.174 ± 0.11.

For the variant QKPVSAYALFFRDTQAAIKGQNPNATFGEVSKVVASMWDSLGEEQKQVYKRKTEAAKKEYLKALAAYR [I33V], the abundance fitness was -0.159 ± 0.052.

Turning to QKPVSAYALFFRDTQAAIKGQNPNATFGEVSKAVASMWDSLGEEQKQVYKRKTEAAKKEYLKALAAYR [I33A], the abundance fitness was -0.104 ± 0.05.

For the variant QKPVSAYALFFRDTQAAIKGQNPNATFGEVSKFVASMWDSLGEEQKQVYKRKTEAAKKEYLKALAAYR [I33F], the abundance fitness was -0.5 ± 0.25.

For QKPVSAYALFFRDTQAAIKGQNPNATFGEVSKICASMWDSLGEEQKQVYKRKTEAAKKEYLKALAAYR [V34C], the abundance fitness is -0.137 ± 0.093.

Regarding QKPVSAYALFFRDTQAAIKGQNPNATFGEVSKIFASMWDSLGEEQKQVYKRKTEAAKKEYLKALAAYR [V34F], the abundance fitness was -0.956 ± 0.17.

As to QKPVSAYALFFRDTQAAIKGQNPNATFGEVSKIDASMWDSLGEEQKQVYKRKTEAAKKEYLKALAAYR [V34D], the abundance fitness was -0.541 ± 0.32.

Take QKPVSAYALFFRDTQAAIKGQNPNATFGEVSKIHASMWDSLGEEQKQVYKRKTEAAKKEYLKALAAYR [V34H]: the abundance fitness is -1.06 ± 0.23.

For the variant QKPVSAYALFFRDTQAAIKGQNPNATFGEVSKIGASMWDSLGEEQKQVYKRKTEAAKKEYLKALAAYR [V34G], the abundance fitness was -0.358 ± 0.06.

Regarding QKPVSAYALFFRDTQAAIKGQNPNATFGEVSKIAASMWDSLGEEQKQVYKRKTEAAKKEYLKALAAYR [V34A], the abundance fitness is -0.012 ± 0.05.

Turning to QKPVSAYALFFRDTQAAIKGQNPNATFGEVSKILASMWDSLGEEQKQVYKRKTEAAKKEYLKALAAYR [V34L], the abundance fitness is -0.529 ± 0.069.

With QKPVSAYALFFRDTQAAIKGQNPNATFGEVSKIPASMWDSLGEEQKQVYKRKTEAAKKEYLKALAAYR [V34P], the abundance fitness was -0.689 ± 0.11.

As for QKPVSAYALFFRDTQAAIKGQNPNATFGEVSKIWASMWDSLGEEQKQVYKRKTEAAKKEYLKALAAYR [V34W], the abundance fitness was -0.92 ± 0.15.

In the case of QKPVSAYALFFRDTQAAIKGQNPNATFGEVSKISASMWDSLGEEQKQVYKRKTEAAKKEYLKALAAYR [V34S], the abundance fitness is -0.638 ± 0.091.

For the variant QKPVSAYALFFRDTQAAIKGQNPNATFGEVSKITASMWDSLGEEQKQVYKRKTEAAKKEYLKALAAYR [V34T], the abundance fitness is -0.444 ± 0.11.

Turning to QKPVSAYALFFRDTQAAIKGQNPNATFGEVSKINASMWDSLGEEQKQVYKRKTEAAKKEYLKALAAYR [V34N], the abundance fitness is -0.655 ± 0.27.

As to QKPVSAYALFFRDTQAAIKGQNPNATFGEVSKIEASMWDSLGEEQKQVYKRKTEAAKKEYLKALAAYR [V34E], the abundance fitness was -0.963 ± 0.17.

For QKPVSAYALFFRDTQAAIKGQNPNATFGEVSKIMASMWDSLGEEQKQVYKRKTEAAKKEYLKALAAYR [V34M], the abundance fitness was -0.443 ± 0.092.

Consider QKPVSAYALFFRDTQAAIKGQNPNATFGEVSKIRASMWDSLGEEQKQVYKRKTEAAKKEYLKALAAYR [V34R], for which the abundance fitness is -1.01 ± 0.14.

As for QKPVSAYALFFRDTQAAIKGQNPNATFGEVSKIYASMWDSLGEEQKQVYKRKTEAAKKEYLKALAAYR [V34Y], the abundance fitness is -0.974 ± 0.22.

On to QKPVSAYALFFRDTQAAIKGQNPNATFGEVSKIQASMWDSLGEEQKQVYKRKTEAAKKEYLKALAAYR [V34Q], for which the abundance fitness was -0.954 ± 0.38.

For QKPVSAYALFFRDTQAAIKGQNPNATFGEVSKIKASMWDSLGEEQKQVYKRKTEAAKKEYLKALAAYR [V34K], the abundance fitness is -0.922 ± 0.2.

As to QKPVSAYALFFRDTQAAIKGQNPNATFGEVSKIIASMWDSLGEEQKQVYKRKTEAAKKEYLKALAAYR [V34I], the abundance fitness is -0.149 ± 0.09.

For QKPVSAYALFFRDTQAAIKGQNPNATFGEVHKIVASMWDSLGEEQKQVYKRKTEAAKKEYLKALAAYR [S31H], the abundance fitness was -0.265 ± 0.11.
